Patent US5935927A, “Compositions and methods for stimulating amyloid removal in amyloidogenic diseases using advanced glycosylation endproducts” (The Picower Institute For Medical Research, priority 1996, dated 1999)
Read-outs that look alike come from different tables or passages of the source.

Assays:
soluble βAP = target: T1, soluble βAP (Homo sapiens, UniProt P05067); experiment: Thioflavin-T fluorescence assay of βAP aggregation and seeding; assay type: biochemical; conditions: for effect on fluorescent aggregate formation of βAP: 400 μM βAP 1-28, 0.1M sodium acetate pH 7.0, 100 mM glucose, 0.05M aminoguanidine, FIG. 4; for spontaneous formation of Thioflavin-T fluorescent aggregates: FIG. 1
T1 construct: Co-incubation of 400 μM βAP 1-28 in 0.1M sodium acetate, pH 7.0, with 100 mM glucose; purchased Bachem (Torrance, Calif.); host or cells: chemical synthesis
T1 sequence (P05067 672-699): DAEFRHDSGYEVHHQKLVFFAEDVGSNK
Excerpt: Aggregation and Seeding Reactions. Synthetic, HPLC-purified peptides representing the first 28 (βAP 1-28) and the first 40 amino acids (βAP 1-40) of the 42 amino acid βAP were obtained from Bachem (Torrance, Calif.). Aggregation of soluble βAP 1-28 or βAP 1-40 at different concentrations was initiated by addition of 0.1M sodium acetate (NaOAc) at the indicated pH (between 4.7 and 7.5) and continued for the indicated times. Quantitative aggregate formation with sub-millimolar βAP concentrations was detected using the procedure of LeVine (1992, Protein Science 2:404-410). Briefly, fluorescence of aggregates added to 10 μM Thioflavin-T (Aldrich)/50 mM potassium phosphate buffer, pH 6.0, was measured upon excitation at 450±5 nm and detection of emission at 482±10 mn on a Perkin Elmer LS-50B spectrofluorimeter. Where indicated, small amounts of pre-formed aggregates or "nucleation seeds" were added to the soluble βAP and aggregation initiated with 0.1M sodium acetate.
Generations of "Seeds". […] After incubation, protein concentrations of seed preparations were measured and adjusted with buffer to 150 μM final concentration. […] Lysines at positions 16 and 28 of βAP contain primary amino groups which may react with reducing sugars to generate advanced glycosylation endproducts of AGEs. Indicated amounts of glucose and/or aminoguanidine, a potent inhibitor of advanced glycation and crosslink formation (Brownlee et al., 1986, Science 232:1629-1632), were also added to solutions of βAP before sodium acetate in some experiments.

[1] = system: insulin-producing β-cells of the adult pancreas; conditions: rat cells; Lorenzo et al. 1994; cited from earlier work
[2] = system: insulin-producing β-cells of the adult pancreas; conditions: human cells; Lorenzo et al. 1994; cited from earlier work

For `N=C(N)NN` [aminoguanidine], the “effect on fluorescent aggregate formation of βAP” value (soluble βAP) was “can inhibit the AGE-enhanced aggregation of βAP”.

With `O=C[C@H](O)[C@@H](O)[C@H](O)[C@H](O)CO` [glucose] the “effect on fluorescent aggregate formation of βAP” value (soluble βAP) was “stimulates fluorescent aggregate formation”.

In the case of “human amylin fibrils: fibrils of the 37 amino acid islet amyloid polypeptide (IAPP), amylin (KCNTATCATQRLANFLVHSSNNFGAILSSTNVGSNTY; Islet amyloid polypeptide fibrils; UniProt P10997 34-70, looked up)”, the “toxicity to β-cells” value [1] is given as “toxic” and the “toxicity to β-cells” value [2] is given as “toxic”.

For “βAP 1-28: synthetic peptide representing the first 28 amino acids of the 42 amino acid βAP”, the “spontaneous formation of Thioflavin-T fluorescent aggregates” value (soluble βAP; 600 μM, pH 7.2) was “spontaneously and rapidly formed Thioflavin-T fluorescent aggregates within minutes” and the “spontaneous formation of Thioflavin-T fluorescent aggregates” value (soluble βAP; concentrations below 300 μM) was “aggregated very slowly with a considerable lag before fluorescent aggregates were measurable”.
